T1: CD70 expressed on the surface of 786-O renal cell carcinoma cells (Homo sapiens, UniProt P32970)
T1 construct: natively expressing CD70+ human cancer cell line 786-0 cells; endogenous in cells; host or cells: 786-O (ATCC CRL-1932), A-498 (HTB-44), ACHN (CRL-1611), Caki-1 (HTB-46), Caki-2 (HTB-47)
T1 sequence (P32970 1-193): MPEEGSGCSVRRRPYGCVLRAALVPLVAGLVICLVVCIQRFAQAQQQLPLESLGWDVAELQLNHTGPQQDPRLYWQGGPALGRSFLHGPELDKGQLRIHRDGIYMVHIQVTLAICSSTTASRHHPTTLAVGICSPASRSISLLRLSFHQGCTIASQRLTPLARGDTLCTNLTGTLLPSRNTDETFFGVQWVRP

T2: CD70 expressed on the surface of Daudi lymphoma cells (Homo sapiens, UniProt P32970)
T2 construct: endogenous in cells; host or cells: Daudi (ATCC CCL-213), HuT 78 (TIB-161), Raji (CCL-86), Granta 519 (DSMZ 342)
T2 sequence (P32970 1-193): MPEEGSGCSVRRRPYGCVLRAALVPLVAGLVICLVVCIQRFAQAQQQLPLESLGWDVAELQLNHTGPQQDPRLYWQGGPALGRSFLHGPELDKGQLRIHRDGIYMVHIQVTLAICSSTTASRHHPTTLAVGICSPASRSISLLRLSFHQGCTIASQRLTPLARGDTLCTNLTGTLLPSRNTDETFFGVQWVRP


Experiments:
[1] = target: T1, CD70 expressed on the surface of 786-O renal cell carcinoma cells; assay: Flow cytometry binding to 786-O cells
Experimental: Anti-CD70 antibodies were tested for binding to renal cell carcinoma cells expressing CD70 on their cell surface by flow cytometry.
The renal cell carcinoma cell lines A-498 (ATCC Accession No. HTB-44), 786-O (ATCC Accession No. CRL-1932), ACHN (ATCC Accession No. CRL-1611), Caki-1 (ATCC Accession No. HTB-46) and Caki-2 (ATCC Accession No. HTB-47) were each tested for antibody binding. Binding of the HuMAb 2H5 anti-CD70 human monoclonal antibody was assessed by incubating 1×10^5 cells with 2H5 at a concentration of 1 μg/ml. The cells were washed and binding was detected with a FITC-labeled anti-human IgG Ab. Flow cytometric analyses were performed using a FACSCalibur flow cytometry (Becton Dickinson, San Jose, Calif.). The anti-CD70 monoclonal antibody 2H5 bound to the renal carcinoma cell lines A-498, 786-O, ACHN, Caki-1 and Caki-2.
The renal cell carcinoma cell lines 786-O and A-498 were tested for binding of the HuMAb anti-CD70 human monoclonal antibodies 2H5, 8B5, 10B4 and 18E7 at different concentrations. Binding of the anti-CD70 human monoclonal antibodies was assessed by incubating 5×10^5 cells with antibody at a starting concentration of 50 μg/ml and serially diluting the antibody at a 1:3 dilution. The cells were washed and binding was detected with a PE-labeled anti-human IgG Ab. Flow cytometric analyses were performed using a FACSCalibur flow cytometry (Becton Dickinson, San Jose, Calif.). The results are shown in FIG. 18A (786-O) and FIG. 18B (A-498). […]
Binding of the HuMAb 2H5 and 69A7 anti-CD70 human monoclonal antibodies to the renal cell carcinoma cell line 786-O was assessed by incubating 2×10^5 cells with either 2H5 or 69A7 at a concentration of 10 μg/ml. […] The cells were washed and binding was detected with a FITC-labeled anti-human IgG Ab. […]
The renal cell carcinoma cell line 786-O was tested for binding of the HuMAb anti-CD70 human monoclonal antibody 69A7 at different concentrations. Binding of the anti-CD70 human monoclonal antibodies was assessed by incubating 5×10^5 cells with antibody at a starting concentration of 10 μg/ml and serially diluting the antibody at a 1:3 dilution. The cells were washed and binding was detected with a PE-labeled anti-human IgG Ab. […]
The Daudi lymphoma cell line and 786-O renal carcinoma cell were further tested for antibody binding. Binding of the HuMAb 69A7 anti-CD70 human monoclonal antibody was assessed by incubating 2×10^5 cells with 69A7 at a concentration of 1 μg/ml. The cells were washed and binding was detected with a FITC-labeled anti-human IgG Ab. […] The anti-CD70 monoclonal antibody 69A7 bound to the Daudi lymphoma cell line and 786-O renal carcinoma cell line, as measured by the mean fluorescent intensity (MFI) of staining. […]

[2] = target: T2, CD70 expressed on the surface of Daudi lymphoma cells; assay: Flow cytometry binding to Daudi cells; conditions: antibody 1 μg/ml
Experimental: Anti-CD70 antibodies were tested for binding to lymphoma cells expressing CD70 on their cell surface by flow cytometry.
The lymphoma cell lines Daudi (ATCC Accession No. CCL-213), HuT 78 (ATCC Accession No. TIB-161) and Raji (ATCC Accession No. CCL-86) were each tested for antibody binding. Binding of the HuMAb 2H5 anti-CD70 human monoclonal antibody was assessed by incubating 1×10^5 cells with 2H5 at a concentration of 1 μg/ml. The cells were washed and binding was detected with a FITC-labeled anti-human IgG Ab. […] Flow cytometric analyses were performed using a FACSCalibur flow cytometry (Becton Dickinson, San Jose, Calif.). The anti-CD70 monoclonal antibody 2H5 bound to the lymphoma cell lines Daudi, HuT 78 and Raji, as measured by the mean fluorescent intensity (MFI) of staining.
The Daudi lymphoma cell line and 786-O renal carcinoma cell were further tested for antibody binding. Binding of the HuMAb 69A7 anti-CD70 human monoclonal antibody was assessed by incubating 2×10^5 cells with 69A7 at a concentration of 1 μg/ml. The cells were washed and binding was detected with a FITC-labeled anti-human IgG Ab. […] The anti-CD70 monoclonal antibody 69A7 bound to the Daudi lymphoma cell line and 786-O renal carcinoma cell line, as measured by the mean fluorescent intensity (MFI) of staining.

Row | Molecule | binding to 786-O at different concentrations (MFI) ([1]; 1:3 serial dilution from 50 μg/ml (69A7: from 10 μg/ml)) | binding to 786-O cells ([1]; antibody 1 μg/ml, FITC-labeled anti-human IgG) | binding to 786-O cells ([1]; antibody 10 μg/ml) | binding to Daudi cells (MFI) [2] | relative binding to 786-0 cells ([1]; 30 to 0.01 ug/ml, flow cytometry)
1 | anti-CD70 human monoclonal antibody 69A7 (antibody, V domains shown, Human IgG from hybridoma; also called HuMAb 69A7; FITC-conjugated 69A7) VH: QVQLQESGPGLVKPSETLSLTCTVSGGSVSSDYYYWSWIRQPPGKGLEWLGYIYYSGSTNYNPSLKSRVTISVDTSKNQFSLKLRSVTTADTAVYYCARGDGDYGGNCFDYWGQGTLVTVSS VL: EIVLTQSPATLSLSPGERATLSCRASQSVSSYLAWYQQKPGQAPRLLIFDASNRATGIPARFSGSGSGTDFTLTISSLEPEDFAVYYCQQRSNWPLTFGGGTKVEIK | concentration dependent | bound | bound | bound | 
2 | 2H5 NF: 2H5 HuMAb lacking fucosyl residues, expressed in CHO cell line Ms704-PF (antibody, V domains shown) VH: QVQLVESGGGVVQPGRSLRLSCAASGFTFSSYIMHWVRQAPGKGLEWVAVISYDGRNKYYADSVKGRFTISRDNSKNTLYLQMNSLRAEDTAVYYCARDTDGYDFDYWGQGTLVTVSS VL: EIVLTQSPATLSLSPGERATLSCRASQSVSSYLAWYQQKPGQAPRLLIYDASNRATGIPARFSGSGSGTDFTLTISSLEPEDFAVYYCQQRTNWPLTFGGGTKVEIK |  |  |  |  | binds at lower concentration than 1F4 and 1F4 NF
